In US9724381B2 (THE ADMINISTRATORS OF THE TULANE EDUCATIONAL FUND, priority 2009, dated 2017):
Where no end group is shown, it is not given here. [ ]: non-standard residue; d: D form. The star is where a group is joined. Desaminotyrosyl = O=C(CCc1ccc(O)cc1)*; d2Nal = N[C@H](Cc1ccc2ccccc2c1)C(=O)O; Cha = N[C@@H](CC1CCCCC1)C(=O)O; dCha = N[C@H](CC1CCCCC1)C(=O)O; Picolinoyl = O=C(c1ccccn1)*; dPal = not defined here; Aib = CC(C)(N)C(=O)O; iPr = CC(C)*

Assays:
[1] = target: T1, Ghrelin/GHRP/GHS Receptor (Rattus norvegicus, UniProt O08725); test: In vitro GH release from isolated pituitary glands, pituitary incubation method; assay type: cell-based; conditions: Table 1
T1 sequence (O08725 whole entry): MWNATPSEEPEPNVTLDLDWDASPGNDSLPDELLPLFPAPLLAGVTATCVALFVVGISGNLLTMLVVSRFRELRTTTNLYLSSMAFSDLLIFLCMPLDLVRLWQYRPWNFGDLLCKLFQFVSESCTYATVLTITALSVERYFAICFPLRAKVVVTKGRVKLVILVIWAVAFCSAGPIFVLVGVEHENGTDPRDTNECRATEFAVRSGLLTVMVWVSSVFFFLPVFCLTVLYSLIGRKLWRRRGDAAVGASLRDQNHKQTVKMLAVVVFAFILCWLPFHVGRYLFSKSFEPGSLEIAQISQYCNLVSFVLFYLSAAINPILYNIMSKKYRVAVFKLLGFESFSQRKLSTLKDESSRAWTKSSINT
Experimental: Hormonal activities were obtained from in vitro studies using pituitaries of 20 day old CD-1 strain Sprague Dawley female rats. Two pituitaries were incubated for a total of 4-6 hours. Medium was removed each hour for RIA of GH level and fresh medium was added again. After two one hour preincubation periods (P1-P2), the vehicle/peptides were added to two one hour incubations (I3-I4). Peptide activity was calculated as the change in the hormonal level (delta) between I3+I4 and P2. For antagonist activity, the incubation was continued for 2 additional hours (I5-I6) where both the peptide and a stimulator of GH secretion was added and the antagonist activity was calculated as the change in the hormonal level (delta) between I5+I6 and P2. The peptides were assayed in triplicate and the hormone was assayed in duplicate. Each value recorded represents the mean of 6. The GH RIA reagents were distributed by the NIH. Control data was collected from isolated pituitary glands treated with only the corresponding vehicle in the absence of peptide or stimulator. Control stimulated data was collected from isolated pituitary glands treated with stimulator alone in the absence of any peptide.

[2] = target: T1, Ghrelin/GHRP/GHS Receptor; test: In vitro GH release from cell culture of pituitary cells; assay type: cell-based; design: After dispersion, the cells were collected by centrifugation, wash with DMEM and placed into culture well; endogenous in cells; host or cells: dispersed primary rat anterior pituitary cells; conditions: Table 8
Experimental: In vitro GH Release-Female rats of the CD-1 strain were housed in a constant temperature room at 24° C. with 14 h light and 10 h darkness. The rats were fed Purina Rat chow and water at libitum. All studies were started between 0800-1000 hours. Pituitaries of mature female Sprague Dawley rats were rapidly removed after decapitation, neurointermediate lobe discarded and then placed in a pH 7.4 buffer. The pituitaries were cut into ˜3-mm pieces and then transferred to a flask containing HEPS buffer with trypsin and incubated at 37° C. Cells were triturated several times during this period. After dispersion, the cells were collected by centrifugation, wash with DMEM and placed into culture well. Cell cultures were maintained for 4 days at 37° with 8% CO2 added to the incubator atmosphere. After 4 days in culture, cells were washed with lactated Ringer's solution adjusted to pH 7.2-7.4 and then vehicle, peptide alone or peptide plus stimulator was added to media. Incubation time was 60-120 minutes after which media was removed from each well for GH determination. The GH RIA reagents were distributed by the NIH. Control data was collected from cell cultures treated with only the corresponding vehicle in the absence of peptide or stimulator. Control stimulated data was collected from cell cultures treated with stimulator alone in the absence of any peptide.

[3] = peptide antagonist 10 μg/ml + stimulator His-DTrp-Ala-Trp-DPhe-Lys-NH2 10 ng/ml
[4] = peptide antagonist 30 μg/ml + stimulator His-DTrp-Ala-Trp-DPhe-Lys-NH2 10 ng/ml
[5] = peptide antagonist 0.3 μg/ml + stimulator His-DTrp-Ala-Trp-DPhe-Lys-NH2 10 ng/ml
[6] = peptide antagonist 1 μg/ml + stimulator His-DTrp-Ala-Trp-DPhe-Lys-NH2 10 ng/ml
[7] = peptide antagonist 3 μg/ml + stimulator His-DTrp-Ala-Trp-DPhe-Lys-NH2 10 ng/ml
[8] = peptide antagonist dosage 1 (head prints μg/i.v.)
[9] = peptide antagonist dosage 3 (head prints μg/i.v.)
[10] = peptide antagonist dosage 10 (head prints μg/i.v.)
[11] = peptide antagonist dosage 30 (head prints μg/i.v.)

| Change in stimulated GH release versus preincubation (delta) [1, 5] [ng/mL] | Change in stimulated GH release versus preincubation (delta) [1, 7] [ng/mL] | Unstimulated Basal GH release from cell cultures of pituitary cells [2, 9] [ng/mL] | Unstimulated Basal GH release from cell cultures of pituitary cells [2, 10] [ng/mL] | Unstimulated Basal GH release from cell cultures of pituitary cells [2, 11] [ng/mL] | Substance | Change in stimulated GH release versus preincubation (delta) [1, 3] [ng/mL] | Change in stimulated GH release versus preincubation (delta) [1, 4] [ng/mL] | other results |
| --- | --- | --- | --- | --- | --- | --- | --- | --- |
| – | – | – | – | – | DesaminoTyr-DTrp-Ser-Trp-DPhe-NH2 ([Desaminotyrosyl][dW]SW[dF]-NH2; SMILES NC(=O)[C@@H](Cc1ccccc1)NC(=O)[C@H](Cc1c[nH]c2ccccc12)NC(=O)[C@H](CO)NC(=O)[C@@H](Cc1c[nH]c2ccccc12)NC(=O)CCc1ccc(O)cc1) | 3119 ± 488 | 3258 ± 682 | – |
| – | – | – | – | – | Tyr-DTrp-Lys-Trp-DPhe-NH2 (Y[dW]KW[dF]-NH2; N-terminus assumed; SMILES NCCCC[C@H](NC(=O)[C@@H](Cc1c[nH]c2ccccc12)NC(=O)[C@@H](N)Cc1ccc(O)cc1)C(=O)N[C@@H](Cc1c[nH]c2ccccc12)C(=O)N[C@H](Cc1ccccc1)C(N)=O) | – | – | Change in stimulated GH release versus preincubation (delta) ([1]; peptide antagonist 100 μg/ml + stimulator His-DTrp-Ala-Trp-DPhe-Lys-NH2 10 ng/ml): -555 ± 121 ng/mL |
| – | – | – | – | – | DeaminoTyr-DTrp-Ser-Trp-DPhe-Lys-NH2 ([Desaminotyrosyl][dW]SW[dF]K-NH2; SMILES NCCCC[C@H](NC(=O)[C@@H](Cc1ccccc1)NC(=O)[C@H](Cc1c[nH]c2ccccc12)NC(=O)[C@H](CO)NC(=O)[C@@H](Cc1c[nH]c2ccccc12)NC(=O)CCc1ccc(O)cc1)C(N)=O) | 3325 ± 391 | 3810 ± 621 | – |
| – | 341 ± 222 | – | – | – | His-DTrp-DArg-Trp-DPhe-NH2 (chain 1 H[dW][dR]W[dF]-NH2; chain 2 H[dW][dR]W[dF]-NH2; not fully specified; printed as His-DTrp-DArg-Trp-DPhe-NH2) | -125 ± 101 | -122 ± 44 | – |
| 1542 ± 523 | 445 ± 188 | – | – | – | His-DTrp-DTrp-Phe-Met-NH2 (H[dW][dW]FM-NH2; N-terminus assumed; SMILES CSCC[C@H](NC(=O)[C@H](Cc1ccccc1)NC(=O)[C@@H](Cc1c[nH]c2ccccc12)NC(=O)[C@@H](Cc1c[nH]c2ccccc12)NC(=O)[C@@H](N)Cc1c[nH]cn1)C(N)=O) | 287 ± 68 | -319 ± 95 | Change in stimulated GH release versus preincubation (delta) [1, 6]: 323 ± 69 ng/mL |
| 1765 ± 160 | 949 ± 178 | – | – | – | His-DTrp-DLys-Trp-DPhe-NH2 (H[dW][dK]W[dF]-NH2; N-terminus assumed; SMILES NCCCC[C@@H](NC(=O)[C@@H](Cc1c[nH]c2ccccc12)NC(=O)[C@@H](N)Cc1c[nH]cn1)C(=O)N[C@@H](Cc1c[nH]c2ccccc12)C(=O)N[C@H](Cc1ccccc1)C(N)=O) | – | 91 ± 103 | – |
| 952 ± 200 | 134 ± 91 | – | – | – | His-DTrp-DLys-Trp-DPhe-Lys-NH2 (H[dW][dK]W[dF]K-NH2; N-terminus assumed; SMILES NCCCC[C@H](NC(=O)[C@@H](Cc1ccccc1)NC(=O)[C@H](Cc1c[nH]c2ccccc12)NC(=O)[C@@H](CCCCN)NC(=O)[C@@H](Cc1c[nH]c2ccccc12)NC(=O)[C@@H](N)Cc1c[nH]cn1)C(N)=O) | -83 ± 132 | -175 ± 59 | Change in stimulated GH release versus preincubation (delta) [1, 6]: 324 ± 181 ng/mL |
| – | – | 826 ± 32 | 602 ± 53 | 492 ± 11 | αAib-DTrp-DcyclohexylAla-NH2 ([Aib]-[dW]-[dCha]-NH2; N-terminus assumed; SMILES CC(C)(N)C(=O)N[C@H](Cc1c[nH]c2ccccc12)C(=O)N[C@H](CC1CCCCC1)C(N)=O) | – | – | Unstimulated Basal GH release from cell cultures of pituitary cells [2, 8]: 980 ± 44 ng/mL |
| – | – | 170 ± 19 | 181 ± 31 | 161 ± 20 | DPhe-Ala-Phe-DPal-NH2 ([dF]AF[dPal]-NH2; reading uncertain; also: printed as DPhe-Ala-Phe-DPal-NH2) | – | – | Unstimulated Basal GH release from cell cultures of pituitary cells ([2]; peptide antagonist dosage 100 (head prints μg/i.v.)): 146 ± 21 ng/mL |
| – | – | 1103 ± 18 | 994 ± 22 | 704 ± 115 | αAib-DTrp-DAla-cyclohexylAla-NH2 ([Aib][dW][dA][Cha]-NH2; N-terminus assumed; SMILES C[C@@H](NC(=O)[C@@H](Cc1c[nH]c2ccccc12)NC(=O)C(C)(C)N)C(=O)N[C@@H](CC1CCCCC1)C(N)=O) | – | – | Unstimulated Basal GH release from cell cultures of pituitary cells [2, 8]: 1086 ± 52 ng/mL |
| – | – | 1124 ± 37 | 749 ± 10 | 615 ± 41 | His-DTrp-DTrp-Lys-NH2 (H[dW][dW]K-NH2; N-terminus assumed; SMILES NCCCC[C@H](NC(=O)[C@@H](Cc1c[nH]c2ccccc12)NC(=O)[C@@H](Cc1c[nH]c2ccccc12)NC(=O)[C@@H](N)Cc1c[nH]cn1)C(N)=O) | – | – | – |
| – | – | 1013 ± 207 | 976 ± 13 | 928 ± 16 | Ac-DβNal-PicLys-ILys-DPhe-NH2 (Ac-[d2Nal]K(Picolinoyl)K(iPr)[dF]-NH2; SMILES CC(=O)N[C@H](Cc1ccc2ccccc2c1)C(=O)N[C@@H](CCCCNC(=O)c1ccccn1)C(=O)N[C@@H](CCCCNC(C)C)C(=O)N[C@H](Cc1ccccc1)C(N)=O) [Ac-DβNal-PlcLys-ILys-DPhe-NH2] | – | – | – |

| Substance | Change in stimulated GH release versus preincubation (delta) [1, 5] [ng/mL] | Change in stimulated GH release versus preincubation (delta) [1, 7] [ng/mL] | Unstimulated Basal GH release from cell cultures of pituitary cells [2, 9] [ng/mL] | Unstimulated Basal GH release from cell cultures of pituitary cells [2, 10] [ng/mL] | Unstimulated Basal GH release from cell cultures of pituitary cells [2, 11] [ng/mL] | Change in stimulated GH release versus preincubation (delta) [1, 3] [ng/mL] | Change in stimulated GH release versus preincubation (delta) [1, 4] [ng/mL] | other results |
| --- | --- | --- | --- | --- | --- | --- | --- | --- |
| DesaminoTyr-DTrp-DLys-Trp-DPhe-NH2 ([Desaminotyrosyl][dW][dK]W[dF]-NH2; SMILES NCCCC[C@@H](NC(=O)[C@@H](Cc1c[nH]c2ccccc12)NC(=O)CCc1ccc(O)cc1)C(=O)N[C@@H](Cc1c[nH]c2ccccc12)C(=O)N[C@H](Cc1ccccc1)C(N)=O) | 2404 ± 802 | -466 ± 432 | – | – | – | -1068 ± 318 | -576 ± 110 | Change in stimulated GH release versus preincubation (delta) ([1]; peptide antagonist 0.1 μg/ml + stimulator His-DTrp-Ala-Trp-DPhe-Lys-NH2 10 ng/ml): 4297 ± 1061 ng/mL; Change in stimulated GH release versus preincubation (delta) [1, 6]: 688 ± 327 ng/mL |
| Tyr-DTrp-DLys-Trp-DPhe-NH2 (Y[dW][dK]W[dF]-NH2; N-terminus assumed; SMILES NCCCC[C@@H](NC(=O)[C@@H](Cc1c[nH]c2ccccc12)NC(=O)[C@@H](N)Cc1ccc(O)cc1)C(=O)N[C@@H](Cc1c[nH]c2ccccc12)C(=O)N[C@H](Cc1ccccc1)C(N)=O) | – | -480 ± 95 | – | – | – | – | -363 ± 66 | – |
| DesaminoTyr-DTrp-Ala-Trp-DPhe-NH2 ([Desaminotyrosyl][dW]AW[dF]-NH2; SMILES C[C@H](NC(=O)[C@@H](Cc1c[nH]c2ccccc12)NC(=O)CCc1ccc(O)cc1)C(=O)N[C@@H](Cc1c[nH]c2ccccc12)C(=O)N[C@H](Cc1ccccc1)C(N)=O) | – | 1302 ± 269 | – | – | – | – | -959 ± 75 | – |
| Tyr-DTrp-DTrp-Phe-Phe-NH2 (Y[dW][dW]FF-NH2; N-terminus assumed; SMILES NC(=O)[C@H](Cc1ccccc1)NC(=O)[C@H](Cc1ccccc1)NC(=O)[C@@H](Cc1c[nH]c2ccccc12)NC(=O)[C@@H](Cc1c[nH]c2ccccc12)NC(=O)[C@@H](N)Cc1ccc(O)cc1) | 1274 ± 329 | – | – | – | – | 1034 ± 182 | -167 ± 157 | – |
